US20210147507A1, “METHODS TO AUGMENT OR ALTER SIGNAL TRANSDUCTION” (Bellicum Pharmaceuticals, Inc., priority 2017, published 2021)
Where a chain is given by its changes, count along the chain named. Names and notes keep the numbering of the source.

B1: Y153A (protein)
chain: GFGDVGALESLRGNADLAAILSMEPCGHCLIINNVNFCRESGLRTRTGSNIDCEKLRRRFSSLHFMVEVKGDLTAKKMVLALLELARQDHGALDCCVVVILSHGCQASHLQFPGAVYGTDGCPVSVEKIVNIFNGTSCPSLGGKPKLFFIQACGGEQKDHGFEVASTSPEDESPGSNPEPDATPFQEGLRTFDQLDAISSLPTPSDIFVSYSTFPGFVSWRDPKSGSWYVETLDDIFEQWAHSEDLQSLLLRVANAVSVKGIYKQMPGCFNFLRKKLFFKTSASRA
B2: F404S (protein)
chain: B1 chain with A19Y, F270S
B3: D330A-N405T (protein)
chain: B1 chain with A19Y, D196A, N271T
B4: A331K (protein)
chain: B1 chain with A19Y, A197K
B5: T317E (protein)
chain: B1 chain with A19Y, T183E
B6: D327G (protein)
chain: B1 chain with A19Y, D193G
B7: D330A-T317E (protein)
chain: B1 chain with A19Y, T183E, D196A
B8: C403T (protein)
chain: B1 chain with A19Y, C269T
B9: L329G (protein)
chain: B1 chain with A19Y, L195G
B10: P318A (protein)
chain: B1 chain with A19Y, P184A
B11: N405A (protein)
chain: B1 chain with A19Y, N271A
B12: F406L (protein)
chain: B1 chain with A19Y, F272L
B13: L329K (protein)
chain: B1 chain with A19Y, L195K
B14: F326K (protein)
chain: B1 chain with A19Y, F192K
B15: F319A (protein)
chain: B1 chain with A19Y, F185A
B16: C403S (protein)
chain: B1 chain with A19Y, C269S
B17: Y153F (protein)
chain: B1 chain with A19F
B18: Q328K (protein)
chain: B1 chain with A19Y, Q194K
B19: D330A-Y153F (protein)
chain: B1 chain with A19F, D196A
B20: Q328R (protein)
chain: B1 chain with A19Y, Q194R
B21: D327K (protein)
chain: B1 chain with A19Y, D193K
B22: C403A (protein)
chain: B1 chain with A19Y, C269A
B23: D327R (protein)
chain: B1 chain with A19Y, D193R
B24: D330A-Y153A (protein)
chain: B1 chain with D196A
B25: F404A (protein)
chain: B1 chain with A19Y, F270A
B26: D315A-D330A (protein)
chain: B1 chain with A19Y, D181A, D196A
B27: N405T (protein)
chain: B1 chain with A19Y, N271T
B28: T317C (protein)
chain: B1 chain with A19Y, T183C
B29: 316ATPF^319AVPI (SMAC/Diablo) (protein, UniProt P55211 1-416, looked up, variant T317V F319I)
chain: MDEADRRLLRRCRLRLVEELQVDQLWDALLSRELFRPHMIEDIQRAGSGSRRDQARQLIIDLETRGSQALPLFISCLEDTGQDMLASFLRTNRQAAKLSKPTLENLTPVVLRPEIRKPEVLRPETPRPVDIGSGGFGDVGALESLRGNADLAYILSMEPCGHCLIINNVNFCRESGLRTRTGSNIDCEKLRRRFSSLHFMVEVKGDLTAKKMVLALLELAQQDHGALDCCVVVILSHGCQASHLQFPGAVYGTDGCPVSVEKIVNIFNGTSCPSLGGKPKLFFIQACGGEQKDHGFEVASTSPEDESPGSNPEPDAVPIQEGLRTFDQLDAISSLPTPSDIFVSYSTFPGFVSWRDPKSGSWYVETLDDIFEQWAHSEDLQSLLLRVANAVSVKGIYKQMPGCFNFLRKKLFFKTS
B30: 402GCFNF^406AAAAA (protein, UniProt P55211 1-416, looked up, variant G402A C403A F404A N405A F406A)
chain: B29 chain with V317T, I319F, G402A, C403A, F404A, N405A, F406A
B31: 402GCFNF^406QPTFT (Casp-8) (protein, UniProt P55211 1-416, looked up, variant G402Q C403P F404T N405F F406T)
chain: B29 chain with V317T, I319F, G402Q, C403P, F404T, N405F, F406T
B32: 402GCFNF^406YCSTL (Casp-2) (protein, UniProt P55211 1-416, looked up, variant G402Y F404S N405T F406L)
chain: B29 chain with V317T, I319F, G402Y, F404S, N405T, F406L
B33: 402GCFNF^406CIVSM (Casp-3) (protein, UniProt P55211 1-416, looked up, variant G402C C403I F404V N405S F406M)
chain: B29 chain with V317T, I319F, G402C, C403I, F404V, N405S, F406M

System: chimeric Caspase-9 polypeptide
Assay: Caspase-9 mutant classes and basal activity (Table 5)
Type: cell-based
Conditions: Caspase-9 mutant class; for Basal Activity: basal (ligand-independent) signaling compared with unmodified chimeric Caspase-9; for IC50: ligand IC50 compared with unmodified chimeric Caspase-9

Chain of chimeric Caspase-9 polypeptide (P62942 2-108 F37V limits assumed): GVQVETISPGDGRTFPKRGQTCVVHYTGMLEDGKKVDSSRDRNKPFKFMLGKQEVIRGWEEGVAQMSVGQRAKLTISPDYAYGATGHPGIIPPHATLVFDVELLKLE

Row | Molecule | Basal Activity | IC50 | Catalytic activity (class 'Catalytically dead')
1 | B1 | Decreased | much higher | 
2 | B2 |  |  | dead
3 | B3 | Increased |  | 
4 | B4 | Increased |  | 
5 | B5 | Increased |  | 
6 | B6 | Increased |  | 
7 | B7 |  |  | dead
8 | B8 | Similar | Similar | 
9 | B9 | Increased |  | 
10 | B10 | Similar | Similar | 
11 | B11 | Similar | Similar | 
12 | B12 |  |  | dead
13 | B13 | Increased |  | 
14 | B14 | Increased |  | 
15 | B15 | Similar | Similar | 
16 | B16 | Similar | Similar | 
17 | B17 | Decreased | much higher | 

Row | Molecule | Basal Activity | IC50 | Catalytic activity (class 'Catalytically dead')
18 | B18 | Increased |  | 
19 | B19 |  |  | dead
20 | B20 | Increased |  | 
21 | B21 | Increased |  | 
22 | B22 | Similar | Similar | 
23 | B23 | Increased |  | 
24 | B24 |  |  | dead
25 | B25 |  |  | dead
26 | B26 |  |  | dead
27 | B27 | Increased |  | 
28 | B28 | Similar | Similar | 
29 | B29 | Similar | Similar | 
30 | B30 |  |  | dead
31 | B31 |  |  | dead
32 | B32 |  |  | dead
33 | B33 |  |  | dead
